Nine molecules from patent publication US20220235143A1 (Memorial Sloan Kettering, published 2022) can be followed below.

In assay [1] the target is T1, MUC16 peptide-2 glycopeptide (human, also: glycopeptide, glycan and its site not given here).
T1 peptide: TLDRSSVLVDGYSPNRNE
Description: SPR, BIAcore X100, peptide-2 glycopeptide over antibody captured by anti-IgG. Here is the method: Ligand capture was performed by flowing the humanized anti-Muc16 antibodies 18C6 H1L1, 18C6 H1L2, 18C6 H2L1, 18C6 H2L2) and the parental 18C6 mouse antibody onto the respective chips under saturating conditions. The MUC16 peptide-2 was then flowed over at the various test concentrations (150 nM, 75 nM, 37.5 nM, 18.8 nM, and 9.4 nM). The assay conditions used for measuring the effects of the glycopeptide were as follows: association time of 2 minutes, disassociation time of 10 min, and a flow rate of 30 μl per minute.

In assay [2] the target is T2, MUC16 c114 expressed on transfected SKOV3 cells (SKOV3^c114) (human).
T2 construct: also called deltaMUC16c114; c114 peptide
T2 chain: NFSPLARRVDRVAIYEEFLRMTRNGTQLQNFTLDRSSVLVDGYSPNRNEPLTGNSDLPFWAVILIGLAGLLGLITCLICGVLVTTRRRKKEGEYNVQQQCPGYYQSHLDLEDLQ
Description: flow cytometry, PE-Texas Red axis 10^0 to 10^5, secondary antibody detection; untransfected SKOV3 Cells + DFO-hu4H11 + Sec Ab lie with their controls below about 5 x 10^2. (Flow cytometry measures light scatter and fluorescence of single cells or particles in a stream.)

Assay [3] deals with T3, biotinylated MUC16 peptide-2 (human, also: biotinylated (position not given here)).
T3 construct: Captured on streptavidin sensor (SPR) or streptavidin magnetic beads (radioligand assays); also called biotinylated peptide-2
T3 peptide: TLDRSSVLVDGYSPNRNE
Description: SPR, BIAcore X100, single cycle kinetics, antibody over captured biotinylated peptide-2. Here is the method: The relative binding affinities of 4H11 humanized antibodies (H1L1, H1L2, H2L1, H2L2) were compared by surface plasmon resonance using a BIACore-X100 instrument with a Biotin CAP Chip (GE Healthcare). The assay format consisted of capturing the biotinylated MUC16 peptide-2 ([…]; SEQ ID NO: 52) onto a streptavidin coated sensor and flowing over the antibody at various concentrations using single cycle kinetics. Ligand capture was performed by flowing 0.5 μg/ml of biotinylated MUC16 peptide-2 at a rate of 5 μl per minute for 65 seconds. The 4H11 humanized antibodies were then flowed over at the various test concentrations (150 nM, 75 nM, 37.5 nM, 18.8 nM, and 9.4 nM). The assay conditions used for measuring the effects of the added antibodies were as follows: association time of 2 minutes, disassociation time of 10 min, and a flow rate of 30 μl per minute.
(In SPR one partner is held on a chip, and binding of the other changes the refractive index at the surface.)

Assay [4] addresses T2, MUC16 c114 expressed on transfected …. Description: FACS, geometric mean PE fluorescence, SKOV3 c114 transfectant cells, mouse anti-human IgG1-Fc-PE detection; same antibody on vector control SKOV3 phrGFP about 200, secondary alone about 170. The method, then:
(§1) In a separate experiment, full-length humanized 4H11 antibodies (IgG1-Fc) comprising different combinations of humanized heavy and light chain variable regions of the 4H11 antibody were assayed. An anti-human IgG1-Fc-PE antibody was employed for fluorescent staining of MUC16-positive OVCAR3 or SKOV3 transfectant cells expressing MUC16 peptides. FIGS. 10A and 10B provide data for mean PE fluorescence and percentage PE positive cells for the 4H11 H1L1, H1L2, H2L1 and H2L2 antibodies assayed.

Assay [5] has the same target. Description: FACS, geometric mean PE fluorescence, SKOV3 c114 transfectant cells, mouse anti-human IgG1-Fc-PE detection; same antibody on vector control SKOV3 phrGFP about 170, at the level of secondary alone (about 170). Here is the method: as §1

Where no end group is shown, it is not given here.

B1: 18C6 H1L1 humanized antibody (antibody, human IgG1, kappa, V domains shown)
VH: QVTLKESGPGILQPTQTLTLTCTFSGFSLSTVGMGVGWSRQPSGKGLEWLAHIWWDDEDKYYNPALKSRLTITKDTSKNQVFLKITNVDTADTATYYCTRIGTAQATDALDYWGQGTLVTVSS
VL: DIVMTQSAPSVPVTPGESVSISCRSSKSLLHSNGNTYLYWFLQKPGQSPQRLIYYMSNLASGVPDRFSGRGSGTDFTLKISRVEAEDVGVYYCMQSLEYPLTFGGGTKLEIKR
notes: also called H1L1 humanized 18C6 antibody
As to B1, in assay [1], the dissociation constant (Kd) – broadly, the equilibrium constant for the complex coming apart – came to 6.7 nM; the dissociation rate constant (koff) – broadly, a measure of how fast the partners let go of each other – came to 0.0019 s⁻¹; the on-rate (kon) (usually the second-order rate constant of association) is 287000 M⁻¹ s⁻¹.

B2: 18C6 H1L2 humanized antibody (antibody, human IgG1, kappa, V domains shown)
VH: QVTLKESGPGILQPTQTLTLTCTFSGFSLSTVGMGVGWSRQPSGKGLEWLAHIWWDDEDKYYNPALKSRLTITKDTSKNQVFLKITNVDTADTATYYCTRIGTAQATDALDYWGQGTLVTVSS
VL: DIVMTQSALSLPVTPGEPVSISCRSSKSLLHSNGNTYLYWFLQKPGQSPQRLIYYMSNLASGVPDRFSGSGSGTDFTLKISRVEAEDVGVYYCMQSLEYPLTFGGGTKLEIKR
In assay [1], B2 came in with a Kd of 8.7 nM, a koff of 0.0025 s⁻¹ and a kon of 287000 M⁻¹ s⁻¹.

B3: 18C6 H2L1 humanized antibody (antibody, human IgG1, kappa, V domains shown)
VH: QVTLKESGPTLVKPTQTLTLTCTFSGFSLSTVGMGVGWSRQPSGKGLEWLAHIWWDDEDKYYNPALKSRLTITKDTSKNQVVLTITNVDPVDTATYYCTRIGTAQATDALDYWGQGTLVTVSS
VL: DIVMTQSAPSVPVTPGESVSISCRSSKSLLHSNGNTYLYWFLQKPGQSPQRLIYYMSNLASGVPDRFSGRGSGTDFTLKISRVEAEDVGVYYCMQSLEYPLTFGGGTKLEIKR
Take B3: in assay [1], the Kd was determined as 9.9 nM, the koff turned out to be 0.0054 s⁻¹ and the kon was found to be 549000 M⁻¹ s⁻¹.

B4: 18C6 H2L2 humanized antibody (antibody, human IgG1, kappa, V domains shown)
VH: QVTLKESGPTLVKPTQTLTLTCTFSGFSLSTVGMGVGWSRQPSGKGLEWLAHIWWDDEDKYYNPALKSRLTITKDTSKNQVVLTITNVDPVDTATYYCTRIGTAQATDALDYWGQGTLVTVSS
VL: DIVMTQSALSLPVTPGEPVSISCRSSKSLLHSNGNTYLYWFLQKPGQSPQRLIYYMSNLASGVPDRFSGSGSGTDFTLKISRVEAEDVGVYYCMQSLEYPLTFGGGTKLEIKR
Turning to B4, in assay [1], the Kd worked out at 9.2 nM, the koff came to 0.004 s⁻¹ and the kon stood at 433000 M⁻¹ s⁻¹.

B5: humanized variant of 4H11 (hu4H11), DFO immunoconjugate (antibody, V domains shown)
VH: EVKLQESGGGFVKPGGSLRVSCAASGFTFSSYAMSWVRLAPEMRLEWVATISSAGGYIFYSDSVQGRFTISRDNAKNSLHLQMGSLRSGDTAMYYCARQGFGNYGDYYAMDYWGQGTTVTVSS
VL: DIELTQSPSSLAVSAGERVTMNCKSSQSLLNSRTRKNQLAWYQQKPGQSPELLIYWASTRQSGVPDRFSGSGSGTDFTLTISSVQAEDVAVYYCQQSYNLLTFGPGTKLEIKR
modifications: p-SCN-Bn-DFO on lysine epsilon-amines, ~1 DFO conjugated per antibody; 89Zr-labelled where named [^89Zr]Zr-DFO-hu4H11
notes: both entries are variable regions (H1 and L1); Full-length antibody; also called DFO-hu4H11; [^89Zr]Zr-DFO-hu4H11
For B5, in assay [2], the binding result was “binds”.

B6: 4H11-H1L1 hIgG (antibody)
heavy: not shown
light: DIELTQSPSSLAVSAGERVTMNCKSSQSLLNSRTRKNQLAWYQQKPGQSPELLIYWASTRQSGVPDRFSGSGSGTDFTLTISSVQAEDVAVYYCQQSYNLLTFGPGTKLEIKRTVAAPSVFIFPPSDEQLKSGTASVVCLLNNFYPREAKVQWKVDNALQSGNSQESVTEQDSKDSTYSLSSTLTLSKADYEKHKVYACEVTHQGLSSPVTKSFNRGEC
notes: also called humanized 4H11 H1L1
In the case of B6, in assay [3], the Kd was determined as 1.57 nM, the koff came out at 0.000146 s⁻¹ and the kon is 92700 M⁻¹ s⁻¹.

B7: 4H11-H1L2 hIgG (antibody)
heavy: not shown
light: DIVLTQSPDSLAVSLGERVTMNCKSSQSLLNSRTRKNQLAWYQQKPGQSPELLIYWASTRQSGVPDRFSGSGSGTDFTLTISSVQAEDVAVYYCQQSYNLLTFGQGTKLEIKRTVAAPSVFIFPPSDEQLKSGTASVVCLLNNFYPREAKVQWKVDNALQSGNSQESVTEQDSKDSTYSLSSTLTLSKADYEKHKVYACEVTHQGLSSPVTKSFNRGEC
notes: also called H1L2 humanized 4H11 antibody
With B7, in assay [3], binding was put at a Kd of 2.19 nM, the koff is 0.000198 s⁻¹ and the kon was 90400 M⁻¹ s⁻¹.

B8: 4H11-H2L1 hIgG (antibody)
heavy: not shown
light: DIELTQSPSSLAVSAGERVTMNCKSSQSLLNSRTRKNQLAWYQQKPGQSPELLIYWASTRQSGVPDRFSGSGSGTDFTLTISSVQAEDVAVYYCQQSYNLLTFGPGTKLEIKRTVAAPSVFIFPPSDEQLKSGTASVVCLLNNFYPREAKVQWKVDNALQSGNSQESVTEQDSKDSTYSLSSTLTLSKADYEKHKVYACEVTHQGLSSPVTKSFNRGEC
In assay [3], B8 displayed a Kd of 1.33 nM, a koff of 0.000101 s⁻¹ and an on-rate (kon) of 76100 M⁻¹ s⁻¹. The binding result in assay [4] is given as “binds”.

B9: 4H11-H2L2 hIgG (antibody)
heavy: not shown
light: DIVLTQSPDSLAVSLGERVTMNCKSSQSLLNSRTRKNQLAWYQQKPGQSPELLIYWASTRQSGVPDRFSGSGSGTDFTLTISSVQAEDVAVYYCQQSYNLLTFGQGTKLEIKRTVAAPSVFIFPPSDEQLKSGTASVVCLLNNFYPREAKVQWKVDNALQSGNSQESVTEQDSKDSTYSLSSTLTLSKADYEKHKVYACEVTHQGLSSPVTKSFNRGEC
In assay [3], B9 displayed a Kd of 2.37 nM, a koff of 0.000175 s⁻¹ and a kon of 73800 M⁻¹ s⁻¹. Besides, in assay [5], the binding result was “binds”.
